Results as given in US20050095257A1.

Target: murine CCR6 expressed on HEK293 cells (HEK293/CCR6) (murine) (UniProt O54689)
Experiment: cell-based or functional assay

| chemotaxis of murine bone marrow derived immature DC, peak activity | Substance |
| --- | --- |
| 10 ng/mL | mDF2βsFv38, murine β-defensin 2 fusion with sFv38 (from UniProt P82020 21-71) |
| 100 ng/mL | mDF3βsFv38, murine β-defensin 3 fusion with sFv38 (from UniProt Q9WTL0 23-63) |
